Laboratory results as given in patent publication US20200102389A1 (Hoffmann-La Roche, published 2020).

Assays:
[1] = target: T1, recombinant soluble human HLA-G β2M MHC class I complex, dimer (human); assay: ELISA, HLA-G dimer coated on plate
T1 construct: also called HLA-G Dimer; fraction A9
Procedure: (§1) The above table summarizes the binding of different rat anti-human HLA-G monoclonal antibodies, derived from wt protein IMS. Shown are the relative EC50 values [ng/ml] of the respective binding to rec. wt monomeric, dimeric and trimeric HLA-G proteins as assessed by ELISA. The ELISA was set up by coating the biotinylated wt HLA-G antigen to strepdavidin plates. After incubation and washing steps, the respective antibodies were bound in a concentration range from 10-0 μg in 1:2 dilution steps. Detection of bound antibodies was carried out by anti-Fc-antibody-POD conjugates. EC50 values were determined from the resulting binding curves at the antibody concentrations generating the half-maximal signal. In case of the non-biotinylated HLA-G dimer and trimer antigens, immobilization was carried out by random coating on assay plates.

[2] = target: T2, recombinant soluble human HLA-G β2M MHC class I complex, monomer (human); assay: ELISA, biotinylated wt HLA-G monomer on streptavidin plate
T2 construct: His tagged; also called HLA-G-0003
Procedure: Streptavidin coated plates (Nunc, MicroCoat #11974998001) were coated with 25 μl/well biotinylated human wt HLA-G at a concentration of 250 ng/ml and incubated at 4° C. overnight. After washing (3×90 μl/well with PBST-buffer) 25 μl anti-HLA-G samples (1:3 dilution in OSEP buffer) or reference antibody (G233, Thermo/Pierce #MA1-19449, 500 ng/ml) were added and incubated 1 h at RT. After washing (3×90 μl/well with PBST-buffer) 25 μl/well goat-anti-mouse H+L-POD (Biorad #170-6561, 1:2000 in OSEP) or donkey-anti-rabbit IgG POD (GE #NA9340V, 1:5000 in OSE) was added and incubated at RT for 1 h on shaker. For detection of rat IgGs a mixture of goat-anti-rat IgG1-POD (Bethyl #A110-106P), goat-anti-rat IgG2a-POD (Bethyl #A110-109P) and goat-anti-rat IgG2b-POD (Bethyl #A110-111P) 1:10000 in OSEP was added and incubated at RT for 1 h on shaker. After washing (6×90 μl/well with PBST-buffer) 25 μl/well TMB substrate (Roche, 11835033001) was added and incubated until OD 2-3. Measurement took place on a Tecan Safire 2 instrument at 370/492 nm.
as §1

[3] = target: T2, recombinant soluble human HLA-G β2M MHC …; assay: competition ELISA, immobilised biotinylated wt HLA-G, competitor c-myc ILT4
Procedure: The above table summarizes the blocking of interaction between rec. HLA-G proteins (monomer and oligomers) to its receptors ILT2 and ILT4 as assessed by ELISA.
(§2) The ELISA was set up by coating the biotinylated antigen wt HLA-G to strepdavidin plates. After incubation and washing steps, the respective antibodies were bound in a concentration range from 8-0 μg in 1:3 dilution steps. C-myc tagged ILT-2 or -4 receptor was added to the HLA-G-antibody complexes. After incubation and washing steps, detection of bound receptor was carried out by anti-cmyc-antibody-POD conjugates. IC50 values were determined from the resulting inhibition curves at the antibody concentrations generating the half-maximal inhibition. In case of the non-biotinylated HLA-G dimer and trimer antigens, immobilization was carried out by random coating on assay plates.

[4] = target: T1, recombinant soluble human HLA-G β2M MHC …; assay: blocking ELISA, Fc tagged ILT2 coated, 100 nM antibody, soluble HLA-G dimer
Procedure: (§3) The ELISA was set up by coating the Fc tagged ILT2 and ILT4 respectively to Maxisorp microtiter plates. After incubation and washing steps, the respective antibodies were added at a concentration of 100nM. Soluble His tagged monomeric, dimeric or trimeric HLA-G was added to the wells. After incubation and washing steps, detection of bound receptor was carried out by anti-His-antibody-POD conjugates.

[5] = target: T1, recombinant soluble human HLA-G β2M MHC …; assay: blocking ELISA, Fc tagged ILT4 coated, 100 nM antibody, soluble HLA-G dimer
Procedure: as §3

[6] = target: T3, recombinant soluble human HLA-G β2M MHC class I complex, trimer (human); assay: blocking ELISA, Fc tagged ILT4 coated, 100 nM antibody, soluble HLA-G trimer
T3 construct: also called HLA-G Trimer; fraction A8
Procedure: as §3

[7] = target: T2, recombinant soluble human HLA-G β2M MHC …; assay: blocking ELISA, Fc tagged ILT2 coated, 100 nM antibody, soluble HLA-G monomer
Procedure: as §3

[8] = target: T2, recombinant soluble human HLA-G β2M MHC …; assay: blocking ELISA, Fc tagged ILT4 coated, 100 nM antibody, soluble HLA-G monomer
Procedure: as §3

[9] = target: T1, recombinant soluble human HLA-G β2M MHC …; assay: competition ELISA, immobilised HLA-G dimer, antibody titrated, competitor c-myc ILT2
Procedure: as §2

[10] = target: T3, recombinant soluble human HLA-G β2M MHC …; assay: competition ELISA, immobilised HLA-G trimer, antibody titrated, competitor c-myc ILT2
Procedure: as §2

[11] = target: T3, recombinant soluble human HLA-G β2M MHC …; assay: competition ELISA, immobilised HLA-G trimer, antibody titrated, competitor c-myc ILT4
Procedure: as §2

[12] = target: T2, recombinant soluble human HLA-G β2M MHC …; assay: competition ELISA, immobilised HLA-G monomer, antibody titrated, competitor c-myc ILT2
Procedure: Streptavidin coated plates (Nunc, MicroCoat #11974998001) were coated with 25 μl/well biotinylated human wt HLA-G at a concentration of 500 ng/ml and incubated at 4° C. overnight. After washing (3×90 μl/well with PB ST-buffer) 25 μl anti-HLA-G samples were added in decreasing concentrations starting at 8 μg/ml, then diluted in 1:3 steps and incubated 1 h at RT. After washing (3×90 μl/well with PBST-buffer) 25 μl/well c-myc-tagged recombinant ILT-2 receptor was added at a concentration of 150 ng/ml and incubated for 1 h at room temperature. After washing (3×90 μl/well with PBST-buffer) 25 μl/well goat-anti-c-myc-POD (Bethyl #A190-104P 1:7000 in OSE) was added and incubated at RT for 1 h on a shaker. After washing (6×90 μl/well with PBST-buffer), 25 μl/well TMB substrate (Roche, 11835033001) was added and incubated until OD 2-3. Measurement took place on a Tecan Safire 2 instrument at 370/492 nm
as §2

Binder	EC50 [1] [nM]	EC50 [2] [nM]	% inh. ILT4 [3] [%]	% inh. ILT2 [4] [%]	% inh. ILT4 [5] [%]	% inh. ILT4 [6] [%]	% inh. ILT2 [7] [%]	% inh. ILT4 [8] [%]	IC50 [9] [nM]	IC50 [10] [nM]	IC50 [11] [nM]	IC50 [12] [nM]
HLA-G-0032 (antibody, V domains shown) VH: QVQLQQSGAELVKPGSSVKISCKASGYSFPSYDMHWIKQQPGNGLEWIGWIYPGNGNTKYNQKFNGKASLTADKSSSTAYMQLSSLTSEDSAVYFCAKPTVATRYNWFAYWGQGTLVTVSS VL: QIVLTQSPALMSASPGEKVTMTCSASSSVNYMHWYQQKPRSSPKPWIYLTSNLASGVPARFSGSGSGTSYSLTISTMEAEDAATYYCQQWSSNLPITFGSGTKLEIK	1.36	3.59	43	95	62	68	75	12	1.3	0.4	71.3	8.4
HLA-G-0037 (antibody, V domains shown) VH: QVQLKESGPGLVQPSQTLSLTCSVSGFSLTTYSVSWVRQPPGKGLEWIGAIWSGGSTDYNSALKSRLRISRDTSKSQVLLKMNSLQTEDRAMYFCVRMNNKFGYWYFDLWGPGTMVTVSS VL: DTVLTQSPTLAVSPGEKITISCRASETVSTMLHWYQQKPGQQPKLLISLASHLESGVPARFTGSGSGTDFTLTIDPVEADDTATYYCQQTWNDPLTFGSGTKLEIK	2.01	4.95	41	96	61	67	73	1	0.8	0.1	> 200	13
HLA-G-0033 (antibody, V domains shown) VH: EVQLVETGGGLVQSGRSLKLSCVASGFTFNDYWMTWTRQAPGKGLEWVASITNSGGRTYYLDSVRGRFTISRDDAQNTLYLQMNSLRSEDTATYYCTKERIYLTAYWFFDFWGPGTMVTVSS VL: DTILTQSPALAVSPGERVTISCRASESVSTLIHWYQQKPGQRPKLLIYLASHLESGVPARFSGSGSGTDFTLTIDPVEADDTATYYCQQSWNEPRTFGGGTKLELK	1.98	4.94	44.6	95	70	71	75	14	1.2	0.5	61.5	8
